Results: patent US20150274826A1 (ARCH ONCOLOGY, published 2015)

T1: mouse CD47 (mouse, UniProt Q61735 19-303)
T1 construct: whole, on cells; also called CD47 on mouse RBCs; CD47 on 4T1 cells
T1 sequence (looked up): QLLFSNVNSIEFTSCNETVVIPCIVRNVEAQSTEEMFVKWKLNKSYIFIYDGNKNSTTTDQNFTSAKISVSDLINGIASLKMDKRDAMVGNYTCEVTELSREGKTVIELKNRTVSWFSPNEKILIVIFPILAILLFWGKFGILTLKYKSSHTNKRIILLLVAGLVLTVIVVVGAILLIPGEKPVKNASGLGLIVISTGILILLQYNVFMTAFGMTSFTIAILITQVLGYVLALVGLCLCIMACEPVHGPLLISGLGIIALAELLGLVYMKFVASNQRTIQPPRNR


Columns and labels:
[1] = molecular target: T2, human CD47 (human, UniProt Q08722 19-323); test: flow cytometry on human RBCs, non-linear fit of median fluorescence
T2 construct: whole, on cells; also called CD47 on human RBCs; CD47 on OV10 cells
T2 sequence (Q08722 19-323): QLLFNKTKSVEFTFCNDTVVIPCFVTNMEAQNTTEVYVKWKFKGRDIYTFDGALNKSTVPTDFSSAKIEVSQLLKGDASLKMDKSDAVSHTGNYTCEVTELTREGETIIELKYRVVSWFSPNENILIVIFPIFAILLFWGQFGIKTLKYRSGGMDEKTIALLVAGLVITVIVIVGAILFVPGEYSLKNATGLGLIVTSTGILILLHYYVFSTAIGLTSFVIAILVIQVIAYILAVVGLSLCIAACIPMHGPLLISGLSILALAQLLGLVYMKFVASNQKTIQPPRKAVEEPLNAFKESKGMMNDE
Description: (§1) RBCs are incubated for 60 minutes on ice with tissue culture supernatants containing the secreted humanized antibodies at a concentration of 10 ng/ml in a solution of phosphate buffered saline, pH 7.2, 2.5 mM EDTA (PBS+E), or with various concentrations of purified antibodies. Cells are then washed with cold PBS+E, and incubated for an additional hour on ice with FITC labeled donkey anti-human antibody (Jackson Immuno Research Labs, West Grove, Pa.; Catalogue #709-096-149) in PBS+E. Cells are then washed with PBS+E, and antibody binding is analyzed using a BD FACSAria Cell Sorter (Becton Dickinson) or a C6 Accuri Flow Cytometer (Becton Dickinson). Antibody binding is quantitated by comparison of mean fluorescence values relative to that of chimeric antibody >VxP037-01LC (SEQ ID NO:7))/>VxPO37-01HC (SEQ ID NO:57). The mean fluorescence value for each antibody is divided by the mean fluorescence value for the chimeric antibody.

[2] = molecular target: T2, human CD47; test: cell-based ELISA on human OV10 cells, apparent Kd
Description: (§2) OV10 cells are grown in IMDM medium containing 10% heat inactivated fetal bovine serum (BioWest; S01520) and 4T1 cells are grown in RMPI medium containing 10% heat inactivated fetal bovine serum (BioWest; S01520). One day before assay, 3×10⁴ cells are plated in 96 well cell bind plates (Corning #3300, VWR #66025-626) so that they are 95-100% confluent at the time of assay. Cells are washed and various concentrations of purified antibodies added in either IMDM or RPMI at 37° C. for 1 hour in […]. Cells are then washed with media and incubated for an additional hour at 37° C. with HRP labeled secondary anti-human antibody (Promega) diluted 1/2500 in media. Cells are washed three times with PBS, and the peroxidase substrate 3,3′,5,5′-tetramethylbenzidine is added (Sigma; Catalog #T4444). Reactions are terminated by the addition of HCl to 0.7N, and absorbance at 450 nm is determined using a Tecan model Infinite M200 plate reader. The apparent binding affinities of these clones to human and mouse cells is determined by non-linear fits (Prism GraphPad software). […] Agglutination of human RBCs is assessed following incubation of human RBCs with various concentrations of humanized blocking only clones. Blood is diluted (1:50) and washed 3 times with PBS/EDTA/BSA. RBCs are added to U-bottomed 96 well plates with equal volumes of the antibodies (75 μl) and incubated for 3 hrs at 37° C. and overnight at 4° C.

[3] = molecular target: T2, human CD47; test: flow cytometry on human RBCs, apparent Kd, non-linear fit
Description: as §1

[4] = molecular target: T1, mouse CD47; test: cell-based ELISA on mouse 4T1 cells, apparent Kd
Description: as §2

Kd [1] | Kd [2] | Kd [3] | Kd [4] | Binder
0.307 µg/mL | 148 pM | 2040 pM | 132 pM | Clone 1.1 (hum01 IgG1 N297Q) (antibody, Fc mutant of Clone 1, IgG1 N297Q; also called Cl 1.1) heavy: QVQLQESGPGLVKPSQTLSLTCTVSGYTFTNYYVFWVRQARGQRLEWIGDINPVNGDTNFNEKFKNRVTISADKSISTAYLQWSSLKASDTAMYYCARGGYTMDYWGQGTLVTVSSASTKGPSVFPLAPSSKSTSGGTAALGCLVKDYFPEPVTVSWNSGALTSGVHTFPAVLQSSGLYSLSSVVTVPSSSLGTQTYICNVNHKPSNTKVDKKVEPKSCDKTHTCPPCPAPELLGGPSVFLFPPKPKDTLMISRTPEVTCVVVDVSHEDPEVKFNWYVDGVEVHNAKTKPREEQYQSTYRVVSVLTVLHQDWLNGKEYKCKVSNKALPAPIEKTISKAKGQPREPQVYTLPPSR light: DIVMTQTPLSLPVTPGEPASISCRSSQSLVHSNGNTYLHWYQQKPGKAPKLLIYKVSYRFSGVPDRFSGSGSGTDFTLKISRVEAEDVGVYYCSQNTHVPRTFGQGTKVEIKRTVAAPSVFIFPPSDEQLKSGTASVVCLLNNFYPREAKVQWKVDNALQSGNSQESVTEQDSKDSTYSLSSTLTLSKADYEKHKVYACEVTHQGLSSPVTKSFNRGEC
0.183 µg/mL | 88.6 pM | 1210 pM | 86.7 pM | Clone 13.1 (hum13 IgG1 N297Q) (antibody, Fc mutant of Clone 13, IgG1 N297Q) heavy: EVQLVQSGAEVKKPGESLRISCKGSGYTFTNYYVFWIRQSPSRGLEWLGDINPVNGDTNFNEKFKNRVTITADKSTSTAYMELSSLRSEDTAVYYCARGGYTMDYWGQGTLVTVSSASTKGPSVFPLAPSSKSTSGGTAALGCLVKDYFPEPVTVSWNSGALTSGVHTFPAVLQSSGLYSLSSVVTVPSSSLGTQTYICNVNHKPSNTKVDKKVEPKSCDKTHTCPPCPAPELLGGPSVFLFPPKPKDTLMISRTPEVTCVVVDVSHEDPEVKFNWYVDGVEVHNAKTKPREEQYQSTYRVVSVLTVLHQDWLNGKEYKCKVSNKALPAPIEKTISKAKGQPREPQVYTLPPSR light: DIVMTQTPLSLPVTPGEPASISCRSSQSLVHSNGNTYLHWYQQKPGKAPKLLIYKVSYRFSGVPDRFSGSGSGTDFTLKISRVEAEDVGVYYCSQNTHVPRTFGQGTKVEIKRTVAAPSVFIFPPSDEQLKSGTASVVCLLNNFYPREAKVQWKVDNALQSGNSQESVTEQDSKDSTYSLSSTLTLSKADYEKHKVYACEVTHQGLSSPVTKSFNRGEC
